In patent US9951373B2, “Oplophorus-derived luciferases, novel coelenterazine substrates, and methods of use” (Promega Corporation, priority 2010, dated 2018):

Assays:
HEK293 cells = experiment: Luminescence of OgLuc variants expressed in HEK293 cells; type: cell-based, human
Method: (§1) The PCR library in the pF4Ag-based non-fusion background was screened for additional variants with increased luminescence compared to 9B8 opt+K33N+170G (SEQ ID NOs: 68 and 69). Selected variants were then assayed in HEK293 and NIH3T3 cells. For each cell type, 15,000 cells were plated and grown overnight at 37° C. The next day, the cells were transfected as described in Example 25 with 10 ng pGL4.13 (Promega Corp.) as a transfection control and 100 ng of the OgLuc test DNA. The media was removed, and the cells were lysed with 100 μL of lysis buffer as described in Example 25 except the lysis buffer contained 100 mM MES pH 6.0 instead of HEPES, and luminescence measured using a GLOMAX® Luminometer.
(§2) Based on the above data, further combination variants were designed and generated (see Table 10) in the context of the pF4Ag-based non-fusion vector background without the 170G. The variants were analyzed in E. coli, HEK293 and NIH3T3 cells as described above and compared to 9B8 opt+K33N. The variants were also examined for luminescence with native coelenterazine.
(§3) The brightness of the variants expressed in HEK293 and NIH3T3 cells was measured as described previously. The luminescence of the variants was normalized to the luminescence generated by 9B8 opt (Table 27).

NIH3T3 cells [1] = experiment: Luminescence of OgLuc variants expressed in NIH3T3 cells; type: cell-based
Method: as §1, §2, §3

[2] = Km of L27V reversion variants, PBI-3939; type: biochemical
Method: Relative activities <1 indicate the reversion is detrimental compared to the residue at that site in the L27V variant. Relative activities >1 indicate the reversion is favorable for activity compared to the residue at that site in the L27V variant. Some additional data on these mutants indicated the following: 166K, 54F, 54A and L27V were tested for thermal stability. The T1/2 60° C. for 166K, 54F, and 54A were 87, 74, and 33%, respectively, indicating these substitutions cause a reduction in thermal stability. […] This indicates higher substrate affinity for L27V, particularly for the position 54 substitutions.

NIH3T3 cells [3] = experiment: Luminescence in sandwich background, NIH3T3 cells; type: cell-based; details: non-sandwich versus sandwich
Method: The PCR library in the Id-OgLuc-HT7 sandwich background was screened for additional variants with increased luminescence compared to 9B8 opt+K33N in sandwich background. Selected variants were then assayed in HEK293 and NIH3T3 cells. […] 1F7 (F) (SEQ ID NOs: 84 and 85) and 15H1 (F) (SEQ ID NOs: 86 and 87) had at least 1.3 fold-increase in luminescence in E. coli. 1F7 (F) was brighter than 9B8 opt+K33N in the sandwich background in HEK293 and NIH3T3 cells.
The variants 9B8 opt+K33N+T39T+K43R+Y68D (“V2”; SEQ ID NOs: 92 and 93), 9B8 opt+K33N+L27V+K43R+Y68D (SEQ ID NOs: 339 and 340), 9B8 opt+K33N+L27V+T39T+K43R+S66N (SEQ ID NOs: 341 and 342), and 9B8 opt+K33N+L27V+T39T+K43R+Y68D (“L27V”; SEQ ID NOs: 88 and 89) were subcloned into the Id-OgLuc-HT7 sandwich background as described above and assayed in HEK293 and NIH3T3 cells as described above. The luminescence generated by the sandwiched variants were compared to the luminescence generated by the […] sandwich (SEQ ID NOs: 59 and 60) (Table 38). The L27V sandwich (SEQ ID NOs: 90 and 91) and V2 sandwich (SEQ ID NOs: 94 and 95) had at least 1.3× fold-increase in luminescence in HEK293 and NIH3T3 cells.
The sandwich and non-sandwich versions of the variants V2, 9B8 opt+K33N+L27V+K43R+Y68D, 9B8 opt+K33N+L27V+T39T+K43R+S66N, and L27V were assayed in HEK293 and NIH3T3 cells as described in Example 37. The luminescence generated by the non-sandwiched variants was compared to the luminescence generated by the sandwiched variants (Table 39).

caspase-3 [4] = target: T1, caspase-3 (Homo sapiens, UniProt P42574); experiment: Bioluminescent caspase-3 assay with L27V variant; type: biochemical; details: luminescence, 3 hrs room temperature
T1 sequence (P42574 29-175 limits assumed): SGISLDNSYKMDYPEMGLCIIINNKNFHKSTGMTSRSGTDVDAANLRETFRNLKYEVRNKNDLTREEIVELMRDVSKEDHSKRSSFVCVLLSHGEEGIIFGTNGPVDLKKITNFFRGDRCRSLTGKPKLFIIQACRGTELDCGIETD
T1 sequence (P42574 176-277 limits assumed): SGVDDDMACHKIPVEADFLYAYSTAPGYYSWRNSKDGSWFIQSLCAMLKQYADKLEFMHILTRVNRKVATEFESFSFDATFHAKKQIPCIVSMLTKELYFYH
Method: (§4) 2. The L27V variant was used in a bioluminescent assay using a pro-coelenterazine substrate comprising the DEVD caspase-3 cleavage sequence. Purified caspase-3 enzyme (1 mg/mL) in 100 mM MES pH 6 (50 μL) was mixed with 227 nM L27V02 variant and 47 μM PBI-3741 (z-DEVD-coelenterazine-h) in assay buffer (50 μL). Reactions were incubated for 3 hrs at room temperature, and luminescence detected as previously described. The assay with the L27V variant was compared to a firefly luciferase version of the assay, CASPASE-GLO® 3/7-Assay system (Caspase-Glo; Promega Corp.).

caspase-3 [5] = experiment: Bioluminescent caspase-3 assay with L27V variant; type: biochemical; details: luminescence, 3 hrs room temperature
Method: as §4

[6] = relative specificity for PBI-3939 compared to native coelenterazine

B1: L27V: 9B8 opt+K33N variant with L27V, T39T, K43R, Y68D (SEQ ID NO: 89) (protein)
chain: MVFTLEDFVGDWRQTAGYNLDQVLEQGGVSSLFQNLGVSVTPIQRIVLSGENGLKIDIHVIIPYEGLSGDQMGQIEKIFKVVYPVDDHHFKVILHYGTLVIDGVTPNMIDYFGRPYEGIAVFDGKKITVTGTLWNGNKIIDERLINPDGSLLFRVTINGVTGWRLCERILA
HEK293 cells; PBI-3939
  luminescence normalized to 9B8 opt, HEK293: 1.6
HEK293 cells; luminescence, PBI-3939
  Fold over 9B8 opt + K33N, HEK293: 0.8
HEK293 cells; [6]
  Fold over Native Coelenterazine, HEK293: 97
NIH3T3 cells [1]; PBI-3939
  luminescence normalized to 9B8 opt, NIH3T3: 1.6
NIH3T3 cells [1]; luminescence, PBI-3939
  Fold over 9B8 opt + K33N, NIH3T3: 0.7
NIH3T3 cells [1]; [6]
  Fold over Native Coelenterazine, NIH3T3: 85
[2]
  Km: 18 µM
NIH3T3 cells [3]
  Fold-decrease in luminescence in the presence of sandwich background, NIH 3T3 cells: 18
caspase-3 [4]
  (+) caspase: 11,532
caspase-3 [5]
  (−) caspase: 803
